# Data reported in the DeepSol protein solubility set.
# Assay: soluble on expression in E. coli; label from the status in PepcDB or PDB records
row,Sequence,soluble on expression in E. coli
1,MAQTAFHVEFNKAPEDQATKTHNRWHPDIPMVEWFNPGDEFRVECYDWTGGQISNDDSANDVRDVDLTRVHYLSGPFGVKGAEPGDLLVVDLLDVGALPESAWGFTGIFARENGGGFLCEHFPDARKACWDFHGIYTTSRHVPNVRWPGIIHPGLIGCLPDRALLERANKREAALLATDPNRVPPLLAPSYADTALMGQMSGEAARKAGAEAWRTVPPREHGGNCDIKNLSRGSRVYFPVYVKGGGLSMGDIHWSQGDGEITFCGAIEMAGFLDIRVDLIKDGINKYGIVNPIFKPSPIEPHFAEYLVFEGISVDEHTGEQYYLDAHVAYRRACLNAIEYLKKFGYTSEQAYIILGTAPVEGRISGIVDIPNACCTLAIPTEIFDFDIRPNAAGPSAKVGKAKVAVTSLEHHHHHH,not soluble
2,MAQTPAFNKPKVELHVHLDGAIKPETILYFGKKRGIALPADTVEELRNIIGMDKPLSLPGFLAKFDYYMPVIAGCREAIKRIAYEFVEMKAKEGVVYVEVRYSPHLLANSKVDPMPWNQTEGDVTPDDVVDLVNQGLQEGEQAFGIKVRSILCCMRHQPSWSLEVLELCKKYNQKTVVAMDLAGDETIEGSSLFPGHVEAYEGAVKNGIHRTVHAGEVGSPEVVREAVDILKTERVGHGYHTIEDEALYNRLLKENMHFEVCPWSSYLTGAWDPKTTHAVVRFKNDKANYSLNTDDPLIFKSTLDTDYQMTKKDMGFTEEEFKRLNINAAKSSFLPEEEKKELLERLYREYQ,soluble
3,MARALADLSVNLQVPRVVPSPDSDSDTDLEDPSPRRSAGGLHRSQVIHSGHFMVSSPHSDSLTRRRDQEGPVGLADFGPRSIDPTLTHLFECLSLAYSGKLVSPKWKNFKGLKLLCRDKIRLNNAIWRAWYIQYVQRRKSPVCGFVTPLQGSEADEHRKPEAVILEGNYWKRRIEVVMREYHKWRIYYKKRVSGTDTCRPWVLRVLEGIARPHPNPYL,soluble
4,MARIIRRPLNLTAAVRFRLSPLSPFSGNSGSINSETTSWSELIRVPSLVEGCDYKHWLVLMKPPNGYPTRNHIVQSFVETLAMALGSEEEAKRSIYSVSTKYYYAFGCRIHEPLTYKIRSLPDVKWVLPDSFIVDGDNRYGGEPFVDGEVVPYDEKYHADWLRDQTDEDAKSGVVKKKHRRKRKKKLI,soluble
5,MARIRVQFICQNCGTVHSRWAGKCNSCGEWNSLIEENANSGIGTGPKQNVHKGRVVALTSLSGNIEDAPRIHSGIAELDRVTGGGFVRGSVLLVGGDPGIGKSTLLTQTAAALSRKGHHVIYVSGEEAVAQICLRAQRLDAANTKVKLAAETNVEDILATLSEHKNLDMVIIDSIQTLWSDAADSAPGTVTQVRISAQAMIRFAKKTGAAVVLVGHVTKEGQIAGPRVVEHMVDAVLYFEGEGGHHYRILRTVKNRFGPTDEIGVFEMSDKGLREVINPSELFLGERNEKAPGAAVFAGMEGTRPILVEIQALVAPSSLGTPRRAVVGWDGNRLSMILAVLEAHCGVRFGQHDVYLNVAGGYRISEPAADLAVAAALVSSLTNIPLPTEYVYFGEISLSGAIRAVSHSAQRINEAQKLGFQGSVQPTTTTKMIKLPTFQQKTFSELSELIAALATGK,not soluble
6,MASATTSSKNGKPLVVVYGDYKCPYCKELDEKVMPKLRKNYIDNHKVEYQFVNLAFLGKDSIVGSRASHAVLMYAPKSFLDFQKQLFAAQQDENKEWLTKELLDKHIKQLHLDKETENKIIKDYKTKDSKSWKAAEKDKKIAKDNHIKTVPTAFINGEKVEDPYDYESYEKLLKDKIKLEHHHHHH,soluble
7,MASDEGKLFVGGLSFDTNEQSLEQVFSKYGQISEVVVVKDRETQRSRGFGFVTFENIDDAKDAMMAMNGKSVDGRQIRVDQAGKSSDNR,soluble
8,MASDESMVPYYQWNFAPVVRGIARTQARVEVLRDGYTVSNELVPSGPFELANLPLGGGSGELKVIIHESDGTKQVFTVPYDTPAVALRKG,soluble
9,MASDWRRQSTSRGIPNEGQNDEKGKPLIGRSFLLEIENRILRTNVAEGLHISGATIIDSFDDASPQCVISDHPMAQKLEKAKKDDPLFKNEKMLKIMPALLRQAVNRNIKVRTPERFLNQMNTWLDRQGKTTSATTSNSTIRGKPSFGRENSAKIERTTPRLVPRMPRVSSDQTSSRPKEERCFLRIDVPGKRPEIRNVSKESFSIVYSGRDTGFSIFKAAESSLVERRQREYDSFLKGKYEPSKKTFKFDERDNYCQFCQKTILGDRKDHERTDEHRNKARTQGITQTMERIVLNARLRAERQEAALKRNQRKSRESVMFVEKSKRANVEYEYGENEIKANWLMLKANTVEKTTEKTSILSPRRRQKRMRSLSSQGDI,not soluble
10,MASETIHFSFANADVYIVARSPNNQNGTGDDTMSYSAKSFSALINAMRADGITRLEQLARQPFRNAQGFWSAEVKK,not soluble
11,MASEVQAERADVVIVGAGHGGAQAAIALRQNGFEGRVLVIGREPEIPYERPPLSKEYLAREKTFERICIRPAQFWEDKAVEMKLGAEVVSLDPAAHTVKLGDGSAIEYGKLIWATGGDPRRLSCVGADLAGVHAVRTKEDADRLMAELDAGAKNAVVIGGGYIGLEAAAVLTKFGVNVTLLEALPRVLARVAGEALSEFYQAEHRAHGVDLRTGAAMDCIEGDGTKVTGVRMQDGSVIPADIVIVGIGIVPCVGALISAGASGGNGVDVDEFCRTSLTDVYAIGDCAAHANDFADGAVIRLESVQNANDMATAAAKDICGAPVPYKATPWFWSNQYDLKLQTVGLSTGHDNAVLRGDPATRSFSVVYLKGGKVVALDCVNMVKDYVQGKKLVEARAQIAPEQLADAGVPLKEMLA,soluble
12,MASGQDKTHIDYAYELDITVKPDSRVPVFNREFATFTGAGVPLFSLGGGPIRYALAEVLAKFHARRGYYVVETPIIASTELFKVSGHIEFYRNNMYLFDIEGHEFAVKPMNCPYHILLFLNEVAKHRSKLPLPFKVFEFGRVHRYEPSGSIYGLLRVRGFTQDDAHIIVPGGRVIDVVYDVFEEMKLVLERLFKLGVSSETFKVRLSMSDKSLIGKEFMGSKEEWEGAEEALREAASRINEKYGIDIVELEGEAAFYGPKLDFIMMVEESGVSKEWQMGTIQFDFNLPRRFRLYDVVREEFGIEEVYIIHRALLGSIERFLGVYLEHRRGRMPFTLAPIQFAVIAVKTGGEVDREIEDLASSIAKGLLDKGFRVAVKGSSKTGLSSDVRHIESTAKPAVNVFIGAKEVREKVLDVRVFDLESMKRRRLAIAYGDAADAVENLAAVAEELESPVRSLSGQAPRIPADFSFML,soluble
13,MASISRARQVELLLVADASMARKYGRGLQHYLLTLASIANRLYSHASIENHIRLAVVKVVVLGDKDKSLEVSKNAATTLKNFCKWQHQHNQLGDDHEEHYDAAILFTREDLCGHHSCDTLGMADVGTICSPERSCAVIEDDGLHAAFTVAHEIGHLLGLSHDDSKFCEETFGSTEDKRLMSSILTSIDASKPWSKCTSATITEFLDDGHGNCLLDLPRKQI,soluble
14,MASKPLQFVVVERKLNVGKNAGKVMQIARPTGRHRVDFRSFCERVSKSTTFNRQEVEAVLNYATEIAKDIVSNGDIVEFGDLGTLMPSFKSKAVEQGVKFNANVHIEKPVVLFQPSKKYFTLTDVSYEQTTARPKKGTKPAPKPDTGSGGNSGEGI,not soluble
15,MASKRALVILAKGAEEMETVIPVDVMRRAGIKVTVAGLAGKDPVQCSRDVVICPDASLEDAKKEGPYDVVVLPGGNLGAQNLSESAAVKEILKEQENRKGLIAAICAGPTALLAHEIGFGSKVTTHPLARDKMMNGGHYTYSENRVEKDGLILTSRGPGTSFEFALAIVEALNGKEVAAQVKAPLVLKDLEHHHHHH,soluble
16,MASLSYPKTTMQIQLGANLKPYHTFGIEQLAAQLVVAESIDDLKALYCSAEWASLPKLIIGKGSNMLFTCHYTGMIVVNRLNGIEHQQDDDYHRLHVAGGEDWPSLVSWCVEQGIGGLENLALIPGCAGSAPIQNIGAYGVEFKDVCDYVEYLCLETGTVKRLTMEECQFGYRDSIFKHQLYQKAVVTAVGLKFAKAWQPIIQYGPLKDLSSDCAIHDVYQRVCATRMEKLPDPAVMGNAGSFFKNPVISQQAFARLQIEHPDVVAYPAEQGVKVAAGWLIDQAGLKGHQIGGAKVHPKQALVIVNTGDASAQDVLMLAADIQQRVFNCYGIELEHEVRFIGESEETNLKQWMSEQA,soluble
17,MASNRGQLNHELSKLFNELWDADQNRMKSGKDYRISLQGKAGYVPAGSNQARDSASFPLFQFVDEEKLKSRKTFATFISLLDNYEMDTGVAEVVTPEEIAENNNFLDAILETKVMKMAHDYLVRKNQAKPTRNDFKVQLYNIWFQLYSRAPGSRPDSCGFEHVFVGESKRGQEMMGLHNWVQFYLQEKRKNIDYKGYVARQNKSRPDEDDQVLNLQFNWKEMVKPVGSSFIGVSPEFEFALYTIVFLASQEKMSREVVRLEEYELQIVVNRHGRYIGTAYPVLLSTNNPDLY,soluble
18,MASPRELTQNPLKKIFMPYSNGRPALHASQRGVCMTNCPTLIVMVGLPARGKTYISKKLTRYLNFIGVPTREFNVGQYRRDMVKTYKSFEFFLPDNEEGLKIRKQCALAALNDVRKFLSEEGGHVAVFDATNTTRERRAMIFNFGEQNGYKTFFVESICVDPEVIAANIVQVKLGSPDYVNRDSDEATEDFMRRIECYENSYESLDEEQDRDLSYIKIMDVGQSYVVNRVADHIQSRIVYYLMNIHVTPRSIYLCRAGESELNLKGRIGGDPGLSPRGREFSKHLAQFISDQNIKDLKVFTSQMKRTIQTAEALSVPYEQFKVLNEIDAGVCEEMTYEEIQDHYPLEFALRDQDKYRYRYPKGESYEDLVQRLEPVIMELERQENVLVICHQAVMRCLLAYFLDKAAEELPYLKCPLHTVLKLTPVAYGCKVESIFLNVAAVNTHRDRPQNVDISRPSEEALVTVPAHQ,soluble
19,MASQADAQELAALRALSASIGLNPHMTQAAGGNTSLKAGDTLWIKASGTWLKDALSDDIMVPVAMAPLLEAVEEGDPAADKPQAFAINELNPRGLRPSIETTVHALMPQRVVLHVHCVDTISLAVQADGEAEVARRLGGIEWAYVPYCRPGLPLARGISEKLRPNVDVLILGNHGLVVAADTVAEAQRLLHRVRSLLARPARATAAPDIAALTALAADSAYRLPADLEAHAVALDPQSRRMAEAGSLYPDHVIFLGQGSVVAKPGENAAGVATRLGAAPVAILFPGAGVLVRGDASAGADAMQRCLADVTARVDVAARLNYLTAAENDELVNWDAEQYRQKLNATGGLEHHHHHH,not soluble
20,MASQLLINDSKYGFLKELGLTENNAGVFHGKWAASGQVVQSFAPANNSPIANVQNGNVQDYEIAISEAKKAYNDWCEVPAPRRGEIVRQIGDKLRTQLQNLGKLVSLEMGKISAEGVGEVQEYVDICDYATGLSRSLEGKIFPSERPGHALLEQWNPLGVVGVISAFNFPCAVYGWNNALALVTGNSVVWKPAPSTPLTAIAVTKLVEEVLVANNVNPALCSLVCGEGDVGQALVKDKRVNLVSFTGSSEIGKIVGQQVQARFGKLLLELGGNNAIIVNEDADLNMVVPATVFAAVGTAGQRCTTTRRLIVHDKVYDQVLERLKKAYAQFESRIGCPLDSNTIIGPLHNQQAVGKYKASVAEAVASGGKIEYGGKVLERDGNFVLPTIVTGLKHDSPVVLRETFAPILYVLKFSTLEEAIAINNEVDQGLSSSLFTTNIQNVFKWMGPKGSDCGIVNVNIPTSGAEIGGAFGGEKETGGGRESGSDSWRQYMRRSTCTINYSKELPLAQGIKFE,not soluble
